Data on three substances can be found in patent EP4752227A2.

For this test, the target named is CD3 (human) (UniProt P07766). Briefly: cell-based or functional assay.
Chain of UniProt P07766 (P07766 23-207): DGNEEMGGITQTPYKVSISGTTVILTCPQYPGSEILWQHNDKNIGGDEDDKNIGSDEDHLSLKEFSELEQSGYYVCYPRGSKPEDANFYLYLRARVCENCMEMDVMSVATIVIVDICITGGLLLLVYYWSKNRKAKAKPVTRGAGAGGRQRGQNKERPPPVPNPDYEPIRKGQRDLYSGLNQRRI
Substance soluble anti-CD3 antibody clone UCHT1 displayed a Transduction efficiencies as measured by CD3+GFP+ cells at Day 6 of 0.52%.
For soluble anti-CD3 antibody clone OKT3 the value was 3.27%; for soluble anti-CD3 antibody clone HIT3A, 4.31%.
